In US20160228506A1, “Compositions and Formulations for Prevention and Reduction of Tumorigenesis, Cancer Cell Proliferation and Invasion, and Methods of Production and Use Thereof in Cancer Treatment” (PRONUTRIA, INC., priority 2013, published 2016):

What was measured:
[1] = Intact half-life during simulated gastric fluid (SGF) digestion; settings: for SGF Half-life (t½): SGF pH 1.5, pepsin:polypeptide 1:20 w/w, 37° C., intact protein; for Half-life: purified proteins, chip electrophoresis
pH solubility = assay type: physicochemical; settings: for pH Range where Protein is >80% detected as Soluble and A650 <1 OD: Low: lower pH; for pH Range where Protein is >80% detected as Soluble and A650 <1 OD: High: upper pH
Experimental: pH Solubility. […] Protein was either lyophilized and then resuspended in buffer cocktail mixtures, or concentrated and then spiked into buffer cocktail mixtures at a final protein concentration of 5 to 30 mg/ml. As a control, protein was also dissolved in a solution of 8 M urea. Protein solutions were shaken for 10 min at room temperature. Turbidity of proteins was determined by measuring the absorbance of protein solutions at 650 nm. The protein solution was then centrifuged for 10 min at 1100×g to pellet undissolved or precipitated protein. The soluble protein fraction (supernatant) was sampled and protein concentration was measured by one or more of the following methods: Coomassie Plus Protein Assay (Pierce), Chip electrophoresis, gel electrophoresis, and/or absorbance at 280 nm. The pH range over which select proteins remained greater than 80% soluble as determined by Bradford and the A650 value are listed in Table E31C.

[2] = Thermostability, temperature of aggregation (ProteoStat Thermal Shift); assay type: physicochemical; set-up: key to Tagg: temperature in °C; settings: for Tagg (pH 7.1): Table E31D, heated 25° C. to 95° C.
Experimental: The thermostability of proteins in a buffer cocktail of Citric Acid and Dibasic Sodium Phosphate over a pH range of 2.8 to 7.1 (preparation described above in Table E31B) was determined using the ProteoStat® Thermal Shift Stability Kit (Enzo Life Sciences) according to the manufacturer's standard protocol. Briefly, protein solutions (˜10 mg/ml) containing 1× ProteoStat TS Detection Reagent were heated from 25° C. to 95° C. at a rate of 0.5° C. per 30 sec using a real-time PCR (rtPCR) thermocycler (BioRad) equipped with a plate reader (SynergyMx, Biotek) while monitoring the fluorescence with a Texas Red filter.

[3] = SGF digest of 168 nutritive polypeptide library, intact protein by LC-MS/MS; assay type: in vitro ADME; settings: for % Intact Protein at 10 min: 168 nutritive polypeptide library SGF digest, LC-MS/MS spectral counts; for % Remaining at 10 min: 168 nutritive polypeptide library, LC-MS/MS
In short: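 A 168-protein IMAC-purified recombinant library was digested in simulated gastric fluid and the 0 and 10 min samples were profiled by SDS-PAGE fractionation, in-gel trypsin digestion and nanoLC-MS/MS. Percent intact protein at 10 min is the ratio of spectral counts (t10/t0), summed over the peak fraction and two flanking fractions. Filters were 1% FDR and at least two unique peptides.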

B1: SEQID-00100: nutritive polypeptide (protein, listed as Lactobacillus acidophilus)
chain: MSEEEIFNKIKDLIADNFEVDKDSITENTNFMNDLDADSIDLVEFILQLEDEFGAEIPDDEAEKIKTVGDAVSYIKSHQG
SGF Half-life (t½) [1]: 120 s | pH Range where Protein is >80% detected as Soluble and A650 <1 OD: Low (pH solubility): 4.3 | pH Range where Protein is >80% detected as Soluble and A650 <1 OD: High (pH solubility): 7.1 | Tagg ([2]; pH 2.8): 95 | Tagg ([2]; pH 3.7): 95 | Tagg ([2]; pH 3.9): 95 | Tagg ([2]; pH 4.3): 83^ | Tagg ([2]; pH 4.6): 84^ | Tagg ([2]; pH 5.0): 95 | Tagg ([2]; pH 5.6): 95 | Tagg ([2]; pH 6.0): 95 | Tagg ([2]; pH 6.5): 95 | Tagg ([2]; pH 7.1): >95

B2: SEQID-00510: nutritive polypeptide naturally produced in Turkey, recombinantly expressed in E. coli (protein)
chain: MVPIAEKMAEKQEEPSNTQNGEPDNAEEGEGKKKKKVKREDLPPFEIVTGERLPAIFFKFQFRNVEYSSGRNKTFLCYVVETQGKESTTSRGYLEDEHAASHAEIAFFNTILPKCESSLRYNITWYVSSSPCVTCADRISETLRKNKNLRLTIMVGRLFMWEEPEMQAALKKMKSAGCKLRIMKPQDFEYVWQNFVEQEEGEEAKAFVPWEDIQENFQYYEEKLAEILQ
modifications: Meleagris gallopavo
notes: nutritive polypeptide naturally produced in Turkey, recombinantly expressed in E. coli
% Intact Protein at 10 min [3]: 13.4% | % Remaining at 10 min [3]: 13.4% | SGF Half-life (t½) [1]: 18 s | Half-life [1]: 18 s | pH Range where Protein is >80% detected as Soluble and A650 <1 OD: Low (pH solubility): 6.5 | pH Range where Protein is >80% detected as Soluble and A650 <1 OD: Other (pH solubility): 2.8 | pH Range where Protein is >80% detected as Soluble and A650 <1 OD: High (pH solubility): 7.1 | Tagg (pH 7.1) [2]: 57.5

B3: SEQID-00610: protein of the 168 nutritive polypeptide library (protein, listed as Saccharomyces cerevisiae)
chain: MVLEATVLVIDNSEYSRNGDFPRTRFEAQIDSVEFIFQAKRNSNPENTVGLISGAGANPRVLSTFTAEFGKILAGLHDTQIEGKLHMATALQIAQLTLKHRQNKVQHQRIVAFVCSPISDSRDELIRLAKTLKKNNVAVDIINFGEIEQNTELLDEFIAAVNNPQEETSHLLTVTPGPRLLYENIASSPIILEEGSSGMGAFGGSGGDSDANGTFMDFGVDPSMDPELAMALRLSMEEEQQRQERLRQQQQQQDQPEQSEQPEQHQDK
modifications: source: /note="strain ATCC 204508 / S288c"
notes: protein of the 168 nutritive polypeptide library
% Intact Protein at 10 min [3]: 3.3% | % Remaining at 10 min [3]: 3.3% | SGF Half-life (t½) [1]: 24 s | Half-life [1]: 24 s | Tagg (pH 7.1) [2]: 54.5

B4: SEQID-00287: nutritive polypeptide (protein, listed as Saccharomyces cerevisiae)
chain: LVLGALLDTSHKFRNLDKDLCEKCAKCISMIGVLDVTKHEFKRTTYSENEVYDLNDSVQTIKFLIWVINDILV
modifications: source: /note="strain ATCC 204508 / S288c"
notes: nutritive polypeptide
SGF Half-life (t½) [1]: 180 s | pH Range where Protein is >80% detected as Soluble and A650 <1 OD: Low (pH solubility): 6.2 | pH Range where Protein is >80% detected as Soluble and A650 <1 OD: Other (pH solubility): 2.6 | pH Range where Protein is >80% detected as Soluble and A650 <1 OD: High (pH solubility): 9.1

B5: SEQID-00511: protein of the 168 nutritive polypeptide library (protein)
chain: MVLFGFGKKKSLPKPEEALPGRDRVMSVPDRHYINGNPLKPPFPEGMEQAVFGLGCFWGAERKFWQQQGVFSTAVGYAGGYTKNPTYEEVCSGMTGHTEVVLVVFDPKVISYTDLLKLFWESHNPTQGMRQGNDTGTQYRSAIYTYSDEQQRLALASRDRYQQALSAASYGEITTEIAPAQEFYYAEAYHQQYLGKNPNGYCGLGGTGVGCPAMTETSV
modifications: Arthrospira platensis C1
notes: as for B3
% Intact Protein at 10 min [3]: 4.3% | % Remaining at 10 min [3]: 4.3% | SGF Half-life (t½) [1]: 18 s | Half-life [1]: 18 s | pH Range where Protein is >80% detected as Soluble and A650 <1 OD: Low (pH solubility): 5.6 | pH Range where Protein is >80% detected as Soluble and A650 <1 OD: High (pH solubility): 7.1 | Tagg ([2]; pH 6.0): 39.5 | Tagg ([2]; pH 6.5): 45.5 | Tagg ([2]; pH 7.1): 42

B6: SEQID-00241: nutritive polypeptide (protein, listed as Bos taurus)
chain: SELKKDIDDLELTLAKVEKEKHATENKVKNLTEEMAGLDETIAKLTKEKKALQEAHQQTLDDLQAEEDKVNTLTKAKTKLEQQVDDLEGSLEQEKKLRMDLERAKRKLEGDLKLA
SGF Half-life (t½) [1]: 18 s | pH Range where Protein is >80% detected as Soluble and A650 <1 OD: Low (pH solubility): 4.3 | pH Range where Protein is >80% detected as Soluble and A650 <1 OD: High (pH solubility): 9.1 | Tagg (pH 7.1) [2]: >95

B7: SEQID-00226: nutritive polypeptide (protein, listed as Bos taurus)
chain: QLQALQAQLTDTKKKVDDDLGTIENLEEAKKKLLKDVEVLSQRLEEKALAYDKLEKTKTRLQQELDDLLVDLDHQRQIVSNLEKKQKKFDQLLAEEKNIS
SGF Half-life (t½) [1]: 42 s | pH Range where Protein is >80% detected as Soluble and A650 <1 OD: Low (pH solubility): 2.6 | pH Range where Protein is >80% detected as Soluble and A650 <1 OD: High (pH solubility): 9.1 | Tagg (pH 7.1) [2]: >95

B8: SEQID-00269: nutritive polypeptide (protein)
chain: DLKKKLDDDLGTLENLEELKKKLLKDLELLSQRLEELALAYDKLEKTKTRLQQELDDLLLDLDHQ
SGF Half-life (t½) [1]: 2460 s | pH Range where Protein is >80% detected as Soluble and A650 <1 OD: Low (pH solubility): 7.2 | pH Range where Protein is >80% detected as Soluble and A650 <1 OD: High (pH solubility): 9.1 | Tagg (pH 7.1) [2]: >95

B9: SEQID-00502: protein of the 168 nutritive polypeptide library (protein)
chain: MASQSNTKSVHDFTVKDARGNNVNLADYKGKVLLIVNVASQCGLTNSNYTELNQLYEKYKGKGLEILAFPCNQFGAQEPGTNEEIVEFACTRFKAEFPIFDKVDVNGDNAAPLYKFLKSSKGGLFGDSIKWNFSKFLVDKDGNVVDRYAPTTSPLSIEKDIKKLLDA
modifications: Glycine max
notes: as for B3
% Intact Protein at 10 min [3]: 9.7% | % Remaining at 10 min [3]: 9.7% | SGF Half-life (t½) [1]: 36 s | Half-life [1]: 36 s | pH Range where Protein is >80% detected as Soluble and A650 <1 OD: Low (pH solubility): 7.1 | pH Range where Protein is >80% detected as Soluble and A650 <1 OD: Other (pH solubility): 2.8 | Tagg ([2]; pH 2.8): 95 | Tagg ([2]; pH 3.7): 95 | Tagg ([2]; pH 4.3): 95^ | Tagg ([2]; pH 4.6): 95^ | Tagg ([2]; pH 5.0): 77 | Tagg ([2]; pH 5.6): 77 | Tagg ([2]; pH 6.0): 76.5 | Tagg ([2]; pH 6.5): 78.5 | Tagg ([2]; pH 7.1): 95

B10: SEQID-00606: protein of the 168 nutritive polypeptide library (protein)
chain: MASEGDHHHHHHHHQDHDHHHHDHDHHHHHDGEGETNSWVGKDGKVYHSHDGLAPHSHEPIYSPGYFTRRAPPLLNRNFNERAFTVGIGGPVGTGKTALMLALCELLRENYSLAAVTNDIFTKEDGEFLVKHKALPEERIRAVETGGCPHAAIREDISINLGPLEELSNLFKADILLCESGGDNLAANFSRELADYIIYIIDVSGGDKIPRKGGPGITQADLLVINKTDLAPAIGADLAVMQRDALRMRDGGPFVFAQVKHKIGVEEIGNLVLQAWEAATGNKRH
modifications: Glycine max
notes: as for B3
% Intact Protein at 10 min [3]: 0% | % Remaining at 10 min [3]: 0% | SGF Half-life (t½) [1]: 18 s | Half-life [1]: 18 s | Tagg (pH 7.1) [2]: 95

B11: SEQID-00265: nutritive polypeptide (protein, listed as Bos taurus)
chain: SEGDRLRVELAEKANKLQNELDNVSTLLEEAEKKGIKFAKDAAGLESQLQDTQELLQEETRQKLNLSSRIRQLEEERSSLQEQQEEEEEARRSLEKQLQALQAQLTDTKKKVDDDLGTIENLEEAKKKLLKDVEVLSQRLEEKALAYDKLEKTKTRLQQELDDLLVDLDHQRQIVSNLEKKQKKFDQLLAEEKNISARYAEERDRAEAEAREKETKALSLARALEEALEAREEAERQNKQLRADMEDLMSSKDDVGKNVHELEKSKRALE
SGF Half-life (t½) [1]: 1740 s | pH Range where Protein is >80% detected as Soluble and A650 <1 OD: Low (pH solubility): 5.1 | pH Range where Protein is >80% detected as Soluble and A650 <1 OD: Other (pH solubility): 3 | pH Range where Protein is >80% detected as Soluble and A650 <1 OD: High (pH solubility): 9.1 | Tagg (pH 7.1) [2]: >95
